From IntAct's records for PubMed 34830280

B1: Centrosome-associated zinc finger protein Cp190 (Drosophila melanogaster (Fruit fly)), Q24478 (parent)
chain: MGEVKSVKVDNWGVFFLQKLQNFFNKTDYCDLTLQFRDNSQLKVHRLVLSACTDYFNVLEQTCEIVDDALIMPNEFQADVVVPIVNFMYTGTLEFELKMYGKLLRTAKEMNMTVLLKLLEAHRRTMENVNRQQRPPSPKGIRRRTVGQPSSGLPQQRVLGPSPQSRNVATPIAQRANTQRGSTGNTMSRTSGGSNRSPYGDSSNVKQEPTSPFEQLRKGYNNNKRPAQTSLLSPPSKKPSLEEVKEFAEQQRMRKQIAAEYGDNDPEYDGGMLYDDVHAGDDDDDDMPPQPSTSKQQSPQGTQTQLEHGSTTIILKQDSPSQTPTIIVKDSSNAKLNHTKIIAEVLRQYPHIVKGHKNIKLKIMPNTPAAPTEKSAPATVKPPANQSSATTSPHKKLHVSFKADKSTPLITAQQKAASSQQKSGTSQTTGNQGTGANPPANTAAAQKRRIDSKTMHALIAQGAENTTGPWLCLRCGVNGRPISIPSYRGFRRHLINTHKETIDPALCEHCGWRSVNNRELHFHMYMEHQTKSLLYTFAECALCNQSYRTKGELEAHINEVHTDDNKQQCIYCNKVFEQELQLYRHMKSYHKEQALEDGIIDETDEEFLGSQDEEEEAEGDEEQEPEQTGKVRILSDISLPATSAITVQQAQQEQLQEEDVEQVQQEVKFVGADGNEVELTDEQRKEILSQLNQQQAGATAGGVVMVLSEPEAEHVKQETDEKSLAGTEEEYDDSQIYSELGAADSVESAKKNIADESKESIDNLEWAENLIAESEEQSNKEPKSDKPRDDISEKLKELTGDWTEDENDDDVDDKPATAELASELANKDPEPTVHEEEDDIDLALQSLHKGPEEATEEKASEESVTSADDAVDAVPNINSQPEKMDVDSEAADEKASKAEVQIKKEAELENDQEEFIKEDSPIPHSDSVAELREAVTASEGEDDVHLEADNIRKELLDELIAEAEKPDQEKDIVQSEENATTEALDRSVTDEDDLVPPTQVSTEQMEIDEPAAEKAAENNEDTRTADEKEAVEDKPNQTQDVTTAEKPTLESAKAGDEATSGEAASVDKVKSLISEWGDDDEDEDENGVSAAAKEEL
partner: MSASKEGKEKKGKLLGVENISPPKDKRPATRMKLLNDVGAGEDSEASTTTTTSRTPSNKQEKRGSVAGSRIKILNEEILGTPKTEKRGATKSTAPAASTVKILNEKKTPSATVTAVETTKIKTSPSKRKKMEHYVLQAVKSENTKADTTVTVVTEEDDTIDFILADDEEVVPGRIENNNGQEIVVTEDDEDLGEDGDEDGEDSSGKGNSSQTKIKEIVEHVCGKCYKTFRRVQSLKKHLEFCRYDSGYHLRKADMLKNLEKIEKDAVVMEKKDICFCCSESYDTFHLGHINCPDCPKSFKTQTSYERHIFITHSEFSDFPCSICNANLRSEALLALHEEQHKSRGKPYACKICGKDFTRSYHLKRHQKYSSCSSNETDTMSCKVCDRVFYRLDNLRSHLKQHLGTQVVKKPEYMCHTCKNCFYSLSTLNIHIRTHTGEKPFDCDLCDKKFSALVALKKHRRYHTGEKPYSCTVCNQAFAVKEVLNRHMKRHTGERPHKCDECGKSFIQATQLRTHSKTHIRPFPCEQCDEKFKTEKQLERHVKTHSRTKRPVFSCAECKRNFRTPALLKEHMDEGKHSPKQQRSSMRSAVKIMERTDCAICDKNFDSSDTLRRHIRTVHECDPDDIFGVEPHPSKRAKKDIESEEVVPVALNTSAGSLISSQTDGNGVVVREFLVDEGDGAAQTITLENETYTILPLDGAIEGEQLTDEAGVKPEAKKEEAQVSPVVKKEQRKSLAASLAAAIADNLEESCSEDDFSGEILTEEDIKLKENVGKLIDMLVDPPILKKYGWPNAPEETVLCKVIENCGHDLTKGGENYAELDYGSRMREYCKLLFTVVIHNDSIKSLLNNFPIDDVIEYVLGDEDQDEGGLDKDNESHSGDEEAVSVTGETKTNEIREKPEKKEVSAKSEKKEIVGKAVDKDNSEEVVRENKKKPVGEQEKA
B2: Centrosome-associated zinc finger protein Cp190 (Drosophila melanogaster (Fruit fly)), Q24478 (parent)
chain: B1 chain
partner: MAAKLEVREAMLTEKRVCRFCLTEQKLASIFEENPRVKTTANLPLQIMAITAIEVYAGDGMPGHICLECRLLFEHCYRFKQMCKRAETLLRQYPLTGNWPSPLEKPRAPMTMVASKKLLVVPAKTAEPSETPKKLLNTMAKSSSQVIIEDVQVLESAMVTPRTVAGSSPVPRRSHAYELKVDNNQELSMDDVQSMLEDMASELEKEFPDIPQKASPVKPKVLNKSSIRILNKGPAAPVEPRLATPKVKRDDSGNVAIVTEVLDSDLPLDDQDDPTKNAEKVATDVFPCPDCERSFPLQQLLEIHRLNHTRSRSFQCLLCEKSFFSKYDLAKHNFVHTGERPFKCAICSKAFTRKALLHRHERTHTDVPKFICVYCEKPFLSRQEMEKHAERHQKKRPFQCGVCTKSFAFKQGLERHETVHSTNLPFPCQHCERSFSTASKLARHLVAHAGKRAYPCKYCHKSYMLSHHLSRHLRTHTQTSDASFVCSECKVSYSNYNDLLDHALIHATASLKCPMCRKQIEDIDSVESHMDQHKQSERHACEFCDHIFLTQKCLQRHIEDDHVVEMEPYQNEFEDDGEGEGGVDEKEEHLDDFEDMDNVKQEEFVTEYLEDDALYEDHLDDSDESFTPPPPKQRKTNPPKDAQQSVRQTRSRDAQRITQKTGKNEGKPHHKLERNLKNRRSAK

Variants of: B1
Conditions: with suhw_drome su(Hw)

Variant | effect of a mutation on the interaction
L118A | with no effect
F15A | with no effect

Variants of: B1
Conditions: with suhw_drome su(Hw)
Remark: another data set of the same source

Variant | effect of a mutation on the interaction
L118A | disrupting interaction strength
V114A | disrupting interaction strength
V114N | disrupting interaction strength
F15A | disrupting interaction strength
K19A | disrupting interaction strength
K117S | disrupting interaction strength

Variants of: B1
Conditions: with suhw_drome su(Hw)
Remark: another data set of the same source

Variant | effect of a mutation on the interaction
V114A | with no effect
V114N | with no effect
V7A | with no effect
K19A | with no effect
K117S | with no effect

Variants of: B1
Conditions: with suhw_drome su(Hw)
Remark: another data set of the same source

Variant | effect of a mutation on the interaction
V7A | disrupting interaction strength

Variants of: B2
Conditions: with pita_drome pita

Variant | effect of a mutation on the interaction
K19A | with no effect
F15A | with no effect
K117S | with no effect
L118A | with no effect
V114A | with no effect
V114N | with no effect

Variants of: B2
Conditions: with pita_drome pita
Remark: another data set of the same source

Variant | effect of a mutation on the interaction
K19A | disrupting interaction strength
F15A | disrupting interaction strength
K117S | disrupting interaction strength
V114A | disrupting interaction strength
V114N | disrupting interaction strength

Variants of: B2
Conditions: with pita_drome pita
Remark: another data set of the same source

Variant | effect of a mutation on the interaction
V7A | disrupting interaction strength
L118A | disrupting interaction strength

Variants of: B2
Conditions: with pita_drome pita
Remark: another data set of the same source

Variant | effect of a mutation on the interaction
V7A | with no effect
